Experimental data taken from the supplement of paper PMC6757056.
± gives the standard deviation of the averaged measurements.

B1: library; a variant is named by its letters at N, in order (parent)
chain: GCUGUCACCGGUGCUUGGUACGUUAUAUUCAGCCGGUCUGAUGAGUCUNNNNNNAGACGAAACAGC

Legend:
(6R,S)-folinic acid [1] = variants of: B1; assay: normalized RNA/DNA level without ligand (relative to sTRSVctl = 100) (log10 (% of sTRSVctl)); HEK293T overexpressing SLC46A1; higher = less ribozyme self-cleavage, higher mRNA level; conditions: without (6R,S)-folinic acid; ligand present: no
Outline: (§1)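 HEK293T cells were transfected with library plasmids carrying ribozyme switches linked to an mCherry reporter, or an eGFP reporter in some ligand experiments, at 4 µg per well of a 6-well plate, with any ligand added 1 h beforehand. After 72 h, total RNA was extracted with EDTA, reverse-transcribed, amplified, barcoded and sequenced. RNA level was defined as RNA reads over DNA reads, normalized to a spiked-in non-cleaving sequence or to the top-ranked sequences. That value was multiplied by 100 and converted to log10, the top set was 25 sequences, and only sequences with ≥100 DNA reads were retained.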

(6R,S)-folinic acid [2] = variants of: B1; assay: normalized RNA/DNA level with ligand (relative to sTRSVctl = 100) (log10 (% of sTRSVctl)); HEK293T overexpressing SLC46A1; ligand concentration (+) RNA-Seq: 6 mM; higher = less ribozyme self-cleavage, higher mRNA level; conditions: with (6R,S)-folinic acid; ligand present: yes
Outline: as §1

Variant	normalized RNA/DNA level without ligand (log10) ((6R,S)-folinic acid [1])	normalized RNA/DNA level with ligand (log10) ((6R,S)-folinic acid [2])
CACAUC	2.035 ± 0.0021	2.04 ± 0.025
CACAUG	2.02 ± 0.01	2.018 ± 0.017
CACAUU	2.02 ± 0.026	2.02 ± 0.059
GACCGC	2.0652 ± 0.00035	2.018 ± 0.011
GACCGA	2.09 ± 0.0085	2.033 ± 0.011
GACCGU	2.03 ± 0.029	2.01 ± 0.023
GACCGG	2.08 ± 0.053	2.0517 ± 0.0019
UACUAA	1.973 ± 0.0021	2.02 ± 0.0061
UACUAG	1.828 ± 0.016	1.99 ± 0.031
UACUAC	2.022 ± 0.0093	2.011 ± 0.0087
CAGACU	2.048 ± 0.0077	2.011 ± 0.0042
CAGACG	2.028 ± 0.0044	2.009 ± 0.0054
UACCUA	2.0242 ± 0.0004	2.069 ± 0.019
UACCUU	2.02 ± 0.0067	2.046 ± 0.014
GAGAGC	1.945 ± 0.01	2.03 ± 0.042
UAGAAC	1.979 ± 0.012	2 ± 0.033
AACUCA	2.03 ± 0.0039	2.003 ± 0.016
AACUCU	2.0187 ± 0.0003	2.02 ± 0.031
AACUCC	2.06 ± 0.031	2.01 ± 0.032
AACGAU	1.959 ± 0.018	2 ± 0.035
AACGAC	2.017 ± 0.013	1.991 ± 0.019
CACUCA	2.013 ± 0.0028	2.03 ± 0.025
CACUCU	2.057 ± 0.015	2.043 ± 0.018

Variant	normalized RNA/DNA level without ligand (log10) ((6R,S)-folinic acid [1])	normalized RNA/DNA level with ligand (log10) ((6R,S)-folinic acid [2])
CACUCG	2.01 ± 0.03	2 ± 0.024
CACUCC	2.044 ± 0.0027	2.02 ± 0.04
CAGAUC	2.046 ± 0.013	2.03 ± 0.052
CAGAUG	2.0121 ± 0.0011	2.026 ± 0.019
CAGAUU	1.997 ± 0.01	2.004 ± 0.011
GAGAUG	1.926 ± 0.0081	2.02 ± 0.035
GAGAUU	2.017 ± 0.0046	2.01 ± 0.022
GAGAUA	1.993 ± 0.011	2.03 ± 0.026
GAGAUC	2.038 ± 0.0061	2.001 ± 0.014
CACGGG	1.91 ± 0.0032	1.992 ± 0.0038
CACGGA	1.99 ± 0.038	2.02 ± 0.029
CACGGC	2.046 ± 0.014	2.03 ± 0.026
CACGGU	1.954 ± 0.0088	1.95 ± 0.04
GAGACG	1.978 ± 0.014	2.031 ± 0.014
GAGACA	1.976 ± 0.0079	2.01 ± 0.031
GAGACC	2.021 ± 0.0065	2.04 ± 0.057
CACCGU	2.02 ± 0.023	2.03 ± 0.033
CACCGC	2.047 ± 0.0053	2.04 ± 0.034
CACCGA	2.021 ± 0.0036	2.04 ± 0.04
CACCGG	1.9715 ± 0.00014	2.01 ± 0.0069
GACGUU	2 ± 0.022	2.01 ± 0.045
GACGUC	2.065 ± 0.0072	2.02 ± 0.054
GACUAA	1.977 ± 0.008	1.98 ± 0.043

Variant	normalized RNA/DNA level without ligand (log10) ((6R,S)-folinic acid [1])	normalized RNA/DNA level with ligand (log10) ((6R,S)-folinic acid [2])
GACAAU	1.967 ± 0.012	1.99 ± 0.045
GAGCCC	2.023 ± 0.013	2.02 ± 0.053
CACCAC	1.998 ± 0.019	1.99 ± 0.026
CACCAA	1.97 ± 0.016	1.99 ± 0.022
CACCAG	1.977 ± 0.019	2 ± 0.036
AAGCAC	2.022 ± 0.0075	1.98 ± 0.045
AAGCAG	1.925 ± 0.0059	2 ± 0.045
AAGACC	2.03 ± 0.033	2.03 ± 0.03
AAGACU	2.01 ± 0.0024	2.02 ± 0.04
UAGCAC	1.992 ± 0.0065	2 ± 0.036
UAGCAA	1.918 ± 0.0043	1.98 ± 0.035
UAGAGU	1.855 ± 0.011	1.992 ± 0.016
GACACC	2.026 ± 0.0065	1.98 ± 0.038
GACACU	2.032 ± 0.015	2.046 ± 0.018
GACACG	1.971 ± 0.019	1.98 ± 0.034
UACAGC	1.991 ± 0.0074	2.02 ± 0.05
CACGAC	2.02 ± 0.023	2.02 ± 0.032
CACGAA	1.956 ± 0.0025	1.94 ± 0.039
CACGAG	1.917 ± 0.0095	2.003 ± 0.007
UACGCU	2.0313 ± 0.00036	2.043 ± 0.0085
UACGCA	1.992 ± 0.013	2.03 ± 0.037
UACGCG	1.79 ± 0.03	1.98 ± 0.058
UACGCC	2.053 ± 0.0091	2.07 ± 0.022

Variant	normalized RNA/DNA level without ligand (log10) ((6R,S)-folinic acid [1])	normalized RNA/DNA level with ligand (log10) ((6R,S)-folinic acid [2])
CACUAU	1.962 ± 0.0042	2.01 ± 0.03
CACUAC	2.0166 ± 0.00023	2.01 ± 0.074
CACUAA	1.961 ± 0.01	2.0172 ± 0.0006
CACUAG	1.949 ± 0.01	2.02 ± 0.034
CAGAGA	1.999 ± 0.019	2.01 ± 0.045
CAGAGU	1.996 ± 0.0082	2.02 ± 0.035
CAGAGC	2.013 ± 0.01	2.01 ± 0.028
CAGCGU	1.999 ± 0.0031	1.99 ± 0.053
CAGCGC	2.046 ± 0.016	2.01 ± 0.039
CAGCGG	1.984 ± 0.0099	2.06 ± 0.029
CAGCGA	2.03 ± 0.0044	2.002 ± 0.0065
AACGUC	2.066 ± 0.014	2.04 ± 0.021
GACGAC	1.956 ± 0.004	2.009 ± 0.018
CACUUG	2.032 ± 0.0036	2.03 ± 0.0041
CACUUU	1.985 ± 0.013	1.98 ± 0.036
CACUUC	2.04 ± 0.03	2.026 ± 0.012
CACUUA	1.952 ± 0.0058	1.97 ± 0.058
GAGCGU	1.982 ± 0.0095	2 ± 0.048
GAGCGG	1.982 ± 0.011	2.06 ± 0.031
GAGCGC	2.002 ± 0.017	2.03 ± 0.054
UAGACC	2.039 ± 0.0018	2.013 ± 0.016
AAGAGC	1.984 ± 0.0028	1.99 ± 0.044
CACAGU	1.999 ± 0.017	2 ± 0.077

Variant	normalized RNA/DNA level without ligand (log10) ((6R,S)-folinic acid [1])	normalized RNA/DNA level with ligand (log10) ((6R,S)-folinic acid [2])
CACAGA	2.03 ± 0.015	2.01 ± 0.022
CACAGG	1.95 ± 0.026	2 ± 0.048
CACAGC	1.978 ± 0.0044	1.96 ± 0.021
CACGUU	2.0092 ± 0.00093	1.99 ± 0.038
CACGUC	2.023 ± 0.0096	1.987 ± 0.013
CACGUG	2.03 ± 0.022	2.05 ± 0.05
CACUGC	2.057 ± 0.016	2.05 ± 0.032
CACUGU	2.057 ± 0.0081	2.056 ± 0.011
AACCAC	2.007 ± 0.0059	1.963 ± 0.015
AACUGU	1.97 ± 0.016	2.007 ± 0.02
AACUGC	2.048 ± 0.015	2.06 ± 0.038
CAGCUA	2.02 ± 0.0022	2.04 ± 0.022
CAGCUU	1.987 ± 0.0035	2.01 ± 0.026
CAGCUC	2.05 ± 0.023	2.035 ± 0.013
AACCGU	1.9935 ± 0.00042	2 ± 0.032
AACCGA	1.998 ± 0.014	1.99 ± 0.051
AACCGC	2.04 ± 0.029	2.013 ± 0.019
GACCUC	2.06 ± 0.0084	2.044 ± 0.0024
GACCUA	2.05 ± 0.0099	2.05 ± 0.035
GACCUU	2.079 ± 0.013	2.04 ± 0.028
GACCUG	2.06 ± 0.023	2.03 ± 0.027
CACAAU	1.954 ± 0.018	1.99 ± 0.057
UACUCC	2.051 ± 0.012	2.034 ± 0.0051
